Laboratory results taken from PMC3805332, “Synthesis of α-Glucan in Mycobacteria Involves a Hetero-octameric Complex of Trehalose Synthase TreS and Maltokinase Pep2” (ACS Chemical Biology, 2013).
Like-named read-outs stand apart in the source and are kept apart here.

Key:
[1] = molecular target: M. tuberculosis trehalose synthase TreS (M. tuberculosis H37Rv) (UniProt P9WQ19); experiment: AUC
[2] = molecular target: M. tuberculosis trehalose synthase TreS (M. tuberculosis H37Rv) (UniProt P9WQ19); experiment: AUC; remark: listed apart in the source

Sequence of M. tuberculosis trehalose synthase TreS (M. tuberculosis H37Rv) (P9WQ19 whole entry): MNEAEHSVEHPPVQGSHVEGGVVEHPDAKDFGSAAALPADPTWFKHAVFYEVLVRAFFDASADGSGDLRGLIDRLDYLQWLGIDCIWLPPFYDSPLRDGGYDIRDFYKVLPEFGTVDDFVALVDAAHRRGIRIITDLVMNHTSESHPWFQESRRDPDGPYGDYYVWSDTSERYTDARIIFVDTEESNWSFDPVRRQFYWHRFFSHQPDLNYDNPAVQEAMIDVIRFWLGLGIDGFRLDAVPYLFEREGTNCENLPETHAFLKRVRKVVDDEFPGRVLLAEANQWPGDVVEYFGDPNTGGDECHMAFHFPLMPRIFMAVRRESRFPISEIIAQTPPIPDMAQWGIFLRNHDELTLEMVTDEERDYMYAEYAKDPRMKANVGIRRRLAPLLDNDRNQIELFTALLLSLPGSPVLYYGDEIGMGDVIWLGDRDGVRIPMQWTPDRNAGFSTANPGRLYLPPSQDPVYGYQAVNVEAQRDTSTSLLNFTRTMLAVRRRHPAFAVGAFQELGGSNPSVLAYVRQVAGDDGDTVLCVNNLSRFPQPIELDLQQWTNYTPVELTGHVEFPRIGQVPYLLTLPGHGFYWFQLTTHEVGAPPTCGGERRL

## M. tuberculosis maltokinase Pep2 (from UniProt O07177 1-455) (enzyme)
[1]
  stoichiometry N (Pep2 subunits per TreS tetramer): 2
[2]
  stoichiometry N (Pep2 subunits per TreS tetramer): 4
